Test results: PMC11443449, “NudCL2 is required for cytokinesis by stabilizing RCC2 with Hsp90 at the midbody” (Protein & Cell, 2024)

Target: T1, His-RCC2 (human, UniProt Q9P258 1-522)
T1 construct: Regulator of chromosome condensation 2 (RCC2), human, full length, cloned by PCR from pSA-RCC2 into pET-28a; pET-28a (His-tag vector, Novagen); also called regulator of chromosome condensation 2; telophase disc protein of 60 kDa; source: Escherichia coli BL21, purified
Experiment: pull-down; GST pull-down with purified GST, GST-NudCL2 and His-RCC2; incubated in PBS at 4°C for 4 h, then glutathione-agarose beads for 2 h; Western blot
Details: both partners purified

T1 sequence (Q9P258 whole entry): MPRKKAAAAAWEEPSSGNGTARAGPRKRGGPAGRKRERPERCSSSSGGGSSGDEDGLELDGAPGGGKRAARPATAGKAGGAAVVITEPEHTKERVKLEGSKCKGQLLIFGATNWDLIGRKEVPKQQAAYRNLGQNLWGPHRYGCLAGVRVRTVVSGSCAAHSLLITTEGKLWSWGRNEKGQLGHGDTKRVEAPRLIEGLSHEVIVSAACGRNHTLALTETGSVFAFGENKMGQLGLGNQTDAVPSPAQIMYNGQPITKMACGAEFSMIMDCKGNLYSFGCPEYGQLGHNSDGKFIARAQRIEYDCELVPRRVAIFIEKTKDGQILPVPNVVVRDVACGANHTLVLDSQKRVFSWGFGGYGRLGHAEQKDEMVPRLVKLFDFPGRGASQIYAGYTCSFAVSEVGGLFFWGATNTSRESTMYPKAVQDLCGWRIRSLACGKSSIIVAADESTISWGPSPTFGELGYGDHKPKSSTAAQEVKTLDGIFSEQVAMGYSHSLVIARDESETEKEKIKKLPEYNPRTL

- binding result: binds
B1: GST-NudCL2 (natural protein, human, UniProt Q8WVJ2 1-157, looked up)
chain: MSAPFEERSGVVPCGTPWGQWYQTLEEVFIEVQVPPGTRAQDIQCGLQSRHVALSVGGREILKGKLFDSTIADEGTWTLEDRKMVRIVLTKTKRDAANCWTSLLESEYAADPWVQDQMQRKLTLERFQKENPGFDFSGAEISGNYTKGGPDFSNLEK
notes: NudC-like protein 2 (NudCL2, NudCD2), human; Li et al., 2019; Yang et al., 2010, 2019) for the vector; also called NudC-like protein 2; NudC domain-containing protein 2; source: Escherichia coli BL21, purified
